Reference: PMC314469, “Protein Interaction Networks by Proteome Peptide Scanning” (PLoS Biology, 2004)

T1: Boi1 SH3 (BOI1_YEAST), P38041
T1 chain: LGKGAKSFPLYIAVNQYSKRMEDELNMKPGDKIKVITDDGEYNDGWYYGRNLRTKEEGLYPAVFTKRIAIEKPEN

T2: Boi2 SH3 (BOI2_YEAST), P39969
T2 chain: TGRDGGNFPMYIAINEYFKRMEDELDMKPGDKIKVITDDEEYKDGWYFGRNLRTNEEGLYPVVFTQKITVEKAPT

T3: Myo5 SH3 (MYO5_YEAST), Q04439
T3 chain: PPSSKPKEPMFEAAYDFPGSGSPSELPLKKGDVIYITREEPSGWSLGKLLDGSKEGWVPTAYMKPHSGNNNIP

T4: Rvs167 SH3 (RV167_YEAST), P39743
T4 chain: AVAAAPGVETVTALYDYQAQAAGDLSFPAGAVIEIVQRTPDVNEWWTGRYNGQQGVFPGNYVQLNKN

T5: Yfr024 SH3 (LSB3_YEAST), P43603
T5 chain: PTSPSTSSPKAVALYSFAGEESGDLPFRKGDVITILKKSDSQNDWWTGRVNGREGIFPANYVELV

T6: Yhr016c SH3 (YSC84_YEAST), P32793
T6 chain: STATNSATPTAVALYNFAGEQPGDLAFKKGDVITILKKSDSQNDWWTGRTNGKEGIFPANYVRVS


How the values were obtained:
Experiment in all cases: SPOT array
[1] = target: T1, Boi1 SH3 (BOI1_YEAST), P38041
[2] = target: T2, Boi2 SH3 (BOI2_YEAST), P39969
[3] = target: T3, Myo5 SH3 (MYO5_YEAST), Q04439
[4] = target: T4, Rvs167 SH3 (RV167_YEAST), P39743
[5] = target: Sho1 SH3 (SHO1_YEAST), P40073
[6] = target: T5, Yfr024 SH3 (LSB3_YEAST), P43603
[7] = target: T6, Yhr016c SH3 (YSC84_YEAST), P32793

Sequence of Sho1 SH3 (SHO1_YEAST), P40073 (P40073 295-366): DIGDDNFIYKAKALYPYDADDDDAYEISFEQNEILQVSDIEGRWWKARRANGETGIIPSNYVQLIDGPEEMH

normalised SPOT signal, Boehringer light units (BLU); mean over the file's lines of this peptide [1]	normalised SPOT signal, Boehringer light units (BLU); mean over the file's lines of this peptide [2]	normalised SPOT signal, Boehringer light units (BLU); mean over the file's lines of this peptide [3]	normalised SPOT signal, Boehringer light units (BLU); mean over the file's lines of this peptide [4]	normalised SPOT signal, Boehringer light units (BLU); mean over the file's lines of this peptide [5]	normalised SPOT signal, Boehringer light units (BLU); mean over the file's lines of this peptide [6]	normalised SPOT signal, Boehringer light units (BLU); mean over the file's lines of this peptide [7]	Binder
89	22.1	124	49.5	69.5	14.5	39.7	HLLGKEGPSAPNPS [YNL287W 476-489]
283	69.3	478	252	121	947	70.2	HLVRKVAPTKPMYS [YHR070W 477-490]
26.1	19.3	166	15.9	89.5	82.7	34.1	HILEKYSPFDPSGR [YPL148C 31-44]
50.1	3.3	139	9.1	40.3	34.3	0	IDIPRTNPHIPLYQ [YOR070C 339-352]
1.1	28.4	144	94.4	21600	470	29.9	HSTPKPLPPVPALS [YNL106C 1030-1043]
119	10.4	233	54.9	35.5	133	22.5	IDKSKLSPRFPELK [YDR237W 35-48]
247	7.2	151	153	53.1	122	40.3	HKFVKSSPVVPFDD [YOR335C 27-40]
16.4	22	116	14.9	47.7	2.6	1.9	IESLREIPYGPDFD [YML105C 200-213]
58.4	33.2	164	28.2	42.1	47.8	18.7	HTIPKSGPIVPYVL [YGR010W 26-39]
226	123	266	605	642	2840	96.9	HRLFKSTPGLPKLW [YAL048C 356-369]
136	39.8	888	29.5	57.1	489	87.4	IAKLKRKPVVPRLK [YPR056W 317-330]
114	1.8	62.3	20.6	82.1	8.5	59.3	HNAAKPIPHVPQAS [YKR067W 8-21]
46.7	120	98.7	163	55.1	2680	88.1	IESFRERPLEPPRK [YDR448W 138-151]
69.4	28.7	91.1	20.5	25.5	0	9.5	IAEWKNDPNNPNFE [YMR277W 194-207]
256	34.5	158	283	65	555	43.3	IAVTRSIPRGPDKN [YOR322C 264-277]
45.1	0	172	28.7	43.4	89.6	16	IAGQRTFPEDPNYP [YKR051W 375-388]
